Experimental data from paper PMC10170197 (Open Biology, 2023).

What was measured:
[1] = target: T1, G3BP1-NTF2 (residues 1–139) (UniProt Q13283 1-139); assay: nanoDSF (thermal shift); G3BP1-NTF2 with 10 x molar excess of peptide, 4% DMSO; neutral pH (7.4); buffers as for ITC; settings: both partners purified
T1 construct: G3BP1, NTF2-like domain, residues 1–139; Purified as a dimer; also called G3BP1-NTF2-WT; NTF2-WT; source: E. coli, purified (IMAC, Superdex 75 SEC, TEV cleavage, IMAC flow-through, SEC)

[2] = target: T1, G3BP1-NTF2 (residues 1–139); assay: nanoDSF (thermal shift); G3BP1-NTF2 with 10 x molar excess of peptide, 4% DMSO; 25 mM Na-acetate pH 5.1, 150 mM NaCl, 10 mM MgCl2, 10% glycerol; settings: both partners purified
[3] = target: T2, NTF2-H31YH62Y (UniProt Q13283 1-139, H31Y | H62Y); assay: nanoDSF (thermal shift); G3BP1-NTF2 with 10 x molar excess of peptide, 4% DMSO; 25 mM MES pH 6.1, 150 mM NaCl, 10 mM MgCl2, 10% glycerol; settings: both partners purified
T2 construct: G3BP1 NTF2-like domain (limits as the G3BP1-NTF2 construct, residues 1–139) with H31Y and H62Y; also called G3BP1-NTF2-H31YH62Y

[4] = target: T1, G3BP1-NTF2 (residues 1–139); assay: as above; settings: both partners purified
[5] = target: T3, GFP-G3BP1-H31YH62Y (UniProt Q13283 1-466, H31Y | H62Y); assay: co-IP; GFP-Trap/anti-GFP beads from lysates of U2OS ΔΔG3BP1/2 cells stably expressing GFP-G3BP1-WT or mutants; EE lysis buffer; Western blot for Caprin-1 and USP10; settings: partners not purified
T3 construct: G3BP1, full length, fused to GFP; source: U2OS ΔΔG3BP1/2 cells, stably transfected, in lysate
T3 sequence (Q13283 whole entry H31Y/H62Y, the tested form may be a part): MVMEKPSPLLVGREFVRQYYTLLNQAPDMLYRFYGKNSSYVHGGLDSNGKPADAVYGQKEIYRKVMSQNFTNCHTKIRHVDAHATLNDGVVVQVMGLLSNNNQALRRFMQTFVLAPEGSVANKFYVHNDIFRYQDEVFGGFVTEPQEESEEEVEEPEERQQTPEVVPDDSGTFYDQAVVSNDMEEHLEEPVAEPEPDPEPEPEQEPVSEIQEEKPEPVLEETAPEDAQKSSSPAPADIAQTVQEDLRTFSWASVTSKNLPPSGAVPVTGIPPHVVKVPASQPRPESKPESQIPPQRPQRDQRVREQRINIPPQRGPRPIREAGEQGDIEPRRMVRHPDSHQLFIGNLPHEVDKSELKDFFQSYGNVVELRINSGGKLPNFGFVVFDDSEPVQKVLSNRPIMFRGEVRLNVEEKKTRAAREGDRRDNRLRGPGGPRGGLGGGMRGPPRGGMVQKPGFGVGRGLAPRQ

T1 sequence (Q13283 1-139): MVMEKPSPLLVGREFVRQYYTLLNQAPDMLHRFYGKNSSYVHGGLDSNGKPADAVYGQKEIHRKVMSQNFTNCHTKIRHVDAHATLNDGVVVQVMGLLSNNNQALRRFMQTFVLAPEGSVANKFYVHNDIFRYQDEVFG
T2 sequence (Q13283 1-139 H31Y/H62Y): as the sequence (Q13283 1-139) above, with H31Y, H62Y counted along it

Row | binding result [3] | reduction of co-precipitated Caprin-1 relative to wild-type G3BP1 [5] [%] | Binder | ΔTm (ligand-binding-induced stabilization of NTF2) [1] [°C] | ΔTm (ligand-binding-induced stabilization of NTF2) [2] [°C] | ΔTm (ligand-binding-induced stabilization of NTF2) [4] [°C]
1 | binds |  | RQRVQDLMAQMQGPYNFIQDSMLDFENQTLD (Used for co-crystallisation and as peptide ligand in nanoDSF; also called Caprin-1-derived SLiM; source: synthetic peptide) [Caprin-1^356–386 peptide] | 3 | 5.5 | 2.5
2 |  | ~50 | Caprin-1, endogenous in U2OS ΔΔG3BP1/2 cells (natural protein, human (endogenous in U2OS), UniProt Q14444 1-709, looked up, Caprin-1, endogenous protein detected by Western blot; source: endogenous, U2OS ΔΔG3BP1/2 lysate) MPSATSHSGSGSKSSGPPPPSGSSGSEAAAGAGAAAPASQHPATGTGAVQTEAMKQILGVIDKKLRNLEKKKGKLDDYQERMNKGERLNQDQLDAVSKYQEVTNNLEFAKELQRSFMALSQDIQKTIKKTARREQLMREEAEQKRLKTVLELQYVLDKLGDDEVRTDLKQGLNGVPILSEEELSLLDEFYKLVDPERDMSLRLNEQYEHASIHLWDLLEGKEKPVCGTTYKVLKEIVERVFQSNYFDSTHNHQNGLCEEEEAASAPAVEDQVPEAEPEPAEEYTEQSEVESTEYVNRQFMAETQFTSGEKEQVDEWTVETVEVVNSLQQQPQAASPSVPEPHSLTPVAQADPLVRRQRVQDLMAQMQGPYNFIQDSMLDFENQTLDPAIVSAQPMNPTQNMDMPQLVCPPVHSESRLAQPNQVPVQPEATQVPLVSSTSEGYTASQPLYQPSHATEQRPQKEPIDQIQATISLNTDQTTASSSLPAASQPQVFQAGTSKPLHSSGINVNAAPFQSMQTVFNMNAPVPPVNEPETLKQQNQYQASYNQSFSSQPHQVEQTELQQEQLQTVVGTYHGSPDQSHQVTGNHQQPPQQNTGFPRSNQPYYNSRGVSRGGSRGARGLMNGYRGPANGFRGGYDGYRPSFSNTPNSGYTQSQFSAPRDYSGYQRDGYQQNFKRGSGQSGPRGAPRGRGGPPRPNRGMPQMNTQQVN |  |  | 
